Reference: PMC2606963

Tests used:
[1] = target: dynamic microtubules grown in buffer from purified (tyrosinated) tubulin (pig) (UniProt P02550); test: single-molecule TIRF microscopy on dynamic microtubules
[2] = target: dynamic microtubules grown in buffer from detyrosinated tubulin (tubulinΔY) (pig) (UniProt P02550); test: TIRF microscopy on dynamic microtubules

Row | mean single molecule dwell time at growing microtubule ends [1] | mean dwell time at growing microtubule ends [1] | percent reduction of end binding against microtubules of tyrosinated tubulin [2] | Substance
1 | 0.05 s |  |  | EB1-GFP (full-length X. laevis EB1 fused to GFP) (natural protein)
2 |  | 0.25 s | 87% | H2-GFP (GFP-tagged H2 fragment of CLIP-170) (domain or fragment)
